{"source": "paper PMC7605111", "key": {"[1]": {"biological_target": "class II fructose-1,6-bisphosphatase from Francisella tularensis (Francisella tularensis)", "assay": "SEC"}, "[2]": {"biological_target": "class II fructose-1,6-bisphosphatase from Francisella tularensis (Francisella tularensis)", "assay": "crystal structure"}}, "note": "Several values for one entry are separate records, joined by “and”; a condition that tells them apart may be missing. Equal values may be shown once."}
{"substance": "class II fructose-1,6-bisphosphatase from Francisella tularensis (enzyme)", "values": [{"measurement": "stoichiometry N", "setting": "[1]", "result": "2 and 4"}, {"measurement": "stoichiometry N", "setting": "[2]", "result": 4}]}
